Experiment: soluble on expression in E. coli; label from the status in PepcDB or PDB records

| Sequence | soluble on expression in E. coli |
| --- | --- |
| MGCSSSALNKAGDSSRFPSVTSNEHFSTAEESESCFAQPKPHALGRESTVDGNVQRESRPPLQKLKVSAEPTANGVKPLQEQPLAKDVAPGRDATDQSGSTEKTQPGEGLEESGPPQPGGKEDAPAAEGKKKDAGAGTEAESLKGNAEAQPLGPEAKGQPLQAAVEKDSLRAVEVTENPQTAAEMKPLGTTENVLTLQIAGELQPQGTVGKDEQAPLLETISKENESPEILEGSQFVETAEEQQLQATLGKEEQPQLLERIPKENVTPEVLDRSQLVEKPVMNDPFHKTPEGPGNMEQIQPEGIVGSMEHPARNVEAGAYVEMIRNIHTNEEDQRIEGETGEKVETDMENEKVSEGAETKEEETGEVVDLSAAT | soluble |
| MTNLTNYHSHCLYCDGRANMEDFIRFAISEGFSSYGISSHAPLPFSTAWTMEWDRMDDYLSEFARLKEKYADKIELAIGLEIDYLNEESHPAIPRFQELPLDYRIGSVHMLYSPQGKVVDIDTPADIFRQLIDAHFEGDLDYVVHLYYKNLLRMVELGGFDILGHADKMHYNASCYRPGLLDEPWYDALVRDYFAEIARHGYIVEINTKSYHDLGTFYPNERYFPLLKELGIRVQVNSDAHYPERINNSRAEALAALKKVGFDTVVEWHGGQWKDMPLLQ | not soluble |
| MGGSHHHHHHGMASMTGGQQMGRTLYDDDDKDRWGSRKIVVVGGVAGGASVAARLRRLSEEDEIIMVERGEYISFANCGLPYYIGGVITERQKLLVQTVERMSKRFNLDIRVLSEVVKINKEEKTITIKNVTTNETYNEAYDVLILSPGAKPIVPSIPGIEEAKALFTLRNVPDTDRIKAYIDEKKPRHATVIGGGFIGVEMVENLRERGIEVTLVEMANQVMPPIDYEMAAYVHEHMKNHDVELVFEDGVDALEENGAVVRLKSGSVIQTDMLILAIGVQPESSLAKGAGLALGVRGTIKVNEKFQTSDPHIYAIGDAIEVKDFVTETETMIPLAWPANRQGRMLADIIHGHTDSLYKGTLGTSVAKVFDLTVATTGLNEKILKRLNIPYEVVHVQANSHAGYYPNATPVLIKLIFNKDSGKIYGAQTLGRDGVDKRMDVIATAIKANLTVLDLPDLELSYAPPYSSAKDPVNMVGYAASNIVDGFVDTVQWHEIDRIVENGGYLIDVREPNELKQGMIKGSINIPLDELRDRLEEVPVDKDIYITCQLGMRGYVAARMLMEKGYKVKNVDGGFKLYGTVLPERIVY | soluble |
| MRAVVVGAGLGGLLAGAFLARNGHEIIVLEKSAMIGGRFTNLPYKGFQLSTGALHMIPHGEDGPLAHLLRILGAKVEIVNSNPKGKILWEGKIFHYRESWKFLSVKEKAKALKLLAEIRMNKLPKEEIPADEWIKEKIGENEFLLSVLESFAGWADSVSLSDLTALELAKEIRAALRWGGPGLIRGGCKAVIDELERIIMENKGKILTRKEVVEINIEEKKVYTRDNEEYSFDVAISNVGVRETVKLIGRDYFDRDYLKQVDSIEPSEGIKFNLAVPGEPRIGNTIVFTPGLMINGFNEPSALDKSLAREGYTLIMAHMALKNGNVKKAIEKGWEELLEIFPEGEPLLAQVYRDGNPVNRTRAGLHIEWPLNEVLVVGDGYRPPGGIEVDGIALGVMKALEKLNLGSFSEWYLLEHHHHHH | soluble |
| MPLTTNTILICAGGACISAGEKSVKDAFEEELRKYGLDEVVRVIETGCMGACTLGPIAVIYPESVFYQKLTPDAAREIVEEHILKGRIVEKYLYKASEGKPVPRVHEEVPFFKKQVRIVTRNLGVIDPTKIEEYIARDGYFALAKALQMKPEDVIKEIKDSGLRGRGGAGFPTGLKWELAARQKAEKKFVVCNADEGDPGAFMDRSVLEGDPHAVIEGMAIAAYAIGAQKGFVYVRAEYPLAIERLNIALNQAREYGFLGGNIMGTDFSFDIEIRIGAGAFVCGEETALMASIEGERGQPKVKPPYPVEKGLWGYPTVINNVETLANVPWIIRNGAKEFRKYGTENSPGTKVFALAGKVKNTGLVEVPMGITLRELIYEIGGGIAGDKKLKAIQTGGPSGGCIPAEYVDTPVDFESLQKLGAIMGSGGMIVMDEDDCMVDVARFFLEFTVEESCGKCTPCREGTKKMLEILEKITSGEGTEEDIEELEKLAHVVKDTSLCGLGQTAPNPVLSTLRYFRDEYLAHVKEKRCPSKKCKALISYVIDPEKCVGCTACARVCPVQCISGQVRQPHVIDQAECVRCGSCIEVCRFGAISKVTPALPVEEAVEAAALEHHHHHH | not soluble |

— the DeepSol protein solubility set
